Data as given in the supplement of paper PMC12764529.
± gives the half width of the 95% confidence interval.

Columns and labels:
[1] = folding stability dG unfold (combined trypsin and chymotrypsin); higher = more stable
In short: (§1)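 Designed mini-proteins with no cysteine and under 80 residues were kept only if AlphaFold2 dimer inter-PAE was above 15. In a PA-tagged cDNA display construct, they were digested with trypsin and chymotrypsin and then sequenced. K50 was inferred by Bayesian fitting of counts, and unfolding free energy was derived per protease or combined against a sequence-predicted unfolded-state K50 and a shared folded-state K50.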

[2] = folding stability dG unfold from trypsin proteolysis; higher = more stable
In short: as §1

[3] = folding stability dG unfold from chymotrypsin proteolysis; higher = more stable
In short: as §1

Sequence	folding stability dG unfold [1] [kcal/mol]	folding stability dG unfold [2] [kcal/mol]	folding stability dG unfold [3] [kcal/mol]
SMTRVKVELLITNPATGETFYYDIEATEEEAEEIAKELEESYPEKNATVTIKKKEVIPVEPPVVLPEGILSA [r9_14_JUSTAS]	0.815 ± 0.069	0.418 ± 0.036	0.906 ± 0.057
SMTTEEKVEVSVTVTPDPNSDNVTLTLTITKRTYAKDENGNWTEVSTETSTITVTLSPEEAAKLAAELLSSA [r9_642_JUSTAS]	4.34 ± 0.17	3.75 ± 0.2	4.52 ± 0.099
SMTVEVELTVTVEVVDPKTGKKKTVTVKVTVKVRVTEVKTKDGKTEVKVELSEEALEEARRLAEELAKKKSA [r9_698_TrROS_Hall]	2.89 ± 0.46	3.13 ± 0.13	2.95 ± 0.38
SMTYSYGVDVSEDPNSDKTTATITTTSSDGSSSLSPEEVAAELAAEAKAAGYTVDVELRPGSVTITVTAPSA [r9_510_JUSTAS]	0.354 ± 0.059	0.464 ± 0.018	0.108 ± 0.086
SMVEIKVEKKEDGTVKITIVAPLEKAEEIAKKLAEELGKEVKIVKIEKKKVKVNGEERELVKIEIEIRLPSA [r9_431_TrROS_Hall]	2.24 ± 0.78	2.86 ± 0.28	2.23 ± 0.31
SMVEIKVEPEKSIIKATLTLKDKTVEEIKQLAKEYFEKLGYKIKVEVKEVKTFEDSVTLKFEIKVPKGLVSA [r9_347_JUSTAS]	2.45 ± 0.26	1.94 ± 0.1	2.27 ± 0.11
SMVELKITVKTPEELKKLEEAFKELGVEEVTIERKEDGTVTITVTFKESEEELEERVREALEELGFEVEPSA [r9_1003_TrROS_Hall]	3.18 ± 0.22	3.33 ± 0.18	2.82 ± 0.23
SMVIEINEDGTVKVYLPEELKGLSAEEIEELIKKLFGPNVKIEKIEIFEPPPKLTEEEKEELKKLPKEEKSA [r9_1011_TrROS_Hall]	1.41 ± 0.33	0.866 ± 0.17	1.76 ± 0.14
SMVKVEIEEENGEKTIRIVNEETGVVVEIKFPEGEEVIEVPSVEELVEELKELGENIEITKIEPLSEEELSA [r9_1102_TrROS_Hall]	0.661 ± 0.25	0.425 ± 0.14	0.497 ± 0.084
SMVQGTVLPPNGQRLTFEFDPAGTAQERAEQVRALLEALLPPDLKIEVERVEPDRPISADEPGTVLARADSA [r9_178_TrMRF]	-0.248 ± 0.28	-0.914 ± 0.56	0.0574 ± 0.19
SMVRITVYRNGKELSEEELRELAAELERETGRRITVEELARRLAARPGLTVRIEVFNEDGELVEERELRVSA [r9_1045_TrROS_Hall]	4.71 ± 0.076	3.42 ± 0.058	5.14 ± 0.11
SMVTSETRETVTVTLPDGTVVTVTVTTHRPADGVPTATVTVTTTSADGTPTTSTHTFPAAEAPALIAAALSA [r9_189_JUSTAS]	2.35 ± 0.086	2.84 ± 0.13	1.96 ± 0.044
SMVTVEEYEEDDEYYVKVYDPEKGVGVVFKTKDGVFKMPVTDPEALKEAIKASGIDVEIVEVRPLGPGLVSA [r9_1102_JUSTAS]	0.492 ± 0.083	0.357 ± 0.036	0.581 ± 0.1
SMVVERDPDGVLRVYASPEEAERIVAELKAAGLDARVEAFDPETGVWVIPVRPVPPAGLEPTPENQALNRVS [r1_78_JUSTAS]	0.962 ± 0.071	0.502 ± 0.029	1.23 ± 0.073
SMVVIEFETKKPKEQAEKAVEKAKKEIPELEEVLEIEVEEFPDFLKVKIVLKGGKITPEDLEKLKEFLEKSA [r9_195_TrMRF]	2.63 ± 0.27	2.67 ± 0.27	2.4 ± 0.071
SMVVVKVTASSPEEAEALAKEAEEKLKEEIEKKIKELKKKGINPKELNLNIKIEIETLSYDPANPGKNTPSA [r9_961_JUSTAS]	0.827 ± 0.13	0.484 ± 0.039	0.998 ± 0.066
SMYDIVITVPSPEDVKALEEAFKELGVEEIEVERLPEERYRIVIKTKGSVEEIVEAIRKIAEENGLEIEPSA [r9_1003_TrMRF]	3.75 ± 0.19	3.36 ± 0.18	3.89 ± 0.19
SMYRIRLPSNKVFTIDVPPDGTVEITLPNGKKLTLKLESEEDILALAEILSKLFPDDPAEIEPIPLEYYRSA [r9_1206_TrMRF]	1.4 ± 0.092	1.24 ± 0.042	1.53 ± 0.19
SMYRIRVKIKIKNPKTGKVIELPELEGMSLEEVLEIAKELKEKFPGAEVEVEIVEVEPLPPLTEEQLKKLSA [r9_421_TrROS_Hall]	2.11 ± 0.073	1.91 ± 0.069	2.33 ± 0.083
SMYTADFILPDEVLKTVPLEGKSVEEALEKVKEIVKQLPPNTPLLVKISYTEVDPKTGTTRTGTITVPLKSA [r9_245_JUSTAS]	2.2 ± 0.19	2.06 ± 0.065	2.39 ± 0.044
SMYYYGKFTFTNPTGGPTIGDVYIITKSKEEAEALAKEEASKKNVKVEIEIKEIPESEYENPEKVKELLSSA [r9_864_JUSTAS]	0.788 ± 0.37	0.285 ± 0.2	1.02 ± 0.19

Sequence	folding stability dG unfold [1] [kcal/mol]	folding stability dG unfold [2] [kcal/mol]	folding stability dG unfold [3] [kcal/mol]
SNIKNIKRVEIYYNPENGWMPKIKVEYPGGEREFMFPPDQAEELLNWLQQKGLPMKITDVEYHPMPPDQMSA [r9_607_TrROS]	1.27 ± 0.18	0.911 ± 0.086	1.49 ± 0.048
SNPENIDKITFTFRWPDGNPMEIEIDPDGTVEYEYPNGWEIEITIDPDDGKLTIEMTFPNGRPQEQKIPISA [r9_99_TrROS]	2.94 ± 0.38	1.86 ± 0.12	2.85 ± 0.097
SNYINEPIYVPPSVDPEEVKKKVEERVEEIKKKLGLPPNISVSVTPVALPEGSVTYRVTVTVDGETYNSSSA [r9_776_JUSTAS]	0.683 ± 0.15	0.77 ± 0.1	0.488 ± 0.17
SPAAELARRLFEELGLEAELVSVDPERRRVTFRVRHPDRAPLLLEVVYDPERPVFAIALNPETGRAVVPVSA [r9_1119_TrMRF]	2.73 ± 0.1	1.8 ± 0.039	3.11 ± 0.036
SPDIEIEPMPNGSYMIEVPVPPDAESIEVPFPGNGRPVTIHRDPDKIHIFFNNPEQIEEIAEAIADGKPISA [r9_515_TrROS]	0.15 ± 0.15	0.0692 ± 0.047	0.2 ± 0.21
SPESIEVQISKSSSTSPSGGSEEIYTVTVTYPATGKTLTKNFTATLNPDGTTNPNGSPEELAAKLAAELLAS [r1_77_JUSTAS]	2 ± 0.1	1.37 ± 0.079	2.23 ± 0.026
SPKIHIFIKGSIEEAVDFIRKFFPGLPIHVFDDPEQAEERAKNGDIVIAIGDEEYANRYAKKYNVPVIYISA [r9_380_TrROS]	3.12 ± 0.053	2.52 ± 0.062	3.338 ± 0.018
SPKITIDVETNKNGRGYIRFKFNGREREIRIPSNMTPEGAKEKARDIANTLQKRYQENGRPLKIEEIEIYSA [r9_751_TrROS]	1.36 ± 0.17	1.49 ± 0.089	1.47 ± 0.13
SPNWKIVEITEMERTDGRVTIKIKIKVPDGRIYIFMPNGKIIEEVPLGDDVELTITFPPNNWPIYIFVLDSA [r9_917_TrROS]	4.48 ± 0.18	3.47 ± 0.093	4.69 ± 0.19
SPPETETYPIPNPEDGKPLMDITIERNPENGNWKVEIYWPGGKKKEVEFPPNETIPIDDLPPGFWVTITRSA [r9_1150_TrROS]	1.21 ± 0.16	0.532 ± 0.12	1.56 ± 0.069
SPPGWKVIPITLKFRAPIKSVEEAKSQVREIAREIANRHGFPIQVNVTVEYDPEDGWVKVEVPISIWVPKSA [r9_741_TrROS]	2.97 ± 0.09	2.75 ± 0.081	3.234 ± 0.022
SPSADAKVRVEPLPGPGYLATLEDGSLVLVHPDGTVIEVTETKVRIRVFTPDKPLLELEIEIPPPAPDEPSA [r9_901_TrMRF]	1.18 ± 0.16	0.803 ± 0.095	1.26 ± 0.066
SPVTVTITLPNGETITLTFPAGMTAEELKAAVLAELKRLLPPGAKIEVVDIEVTEVVAPGETVTVTVRLTSA [r9_178_TrROS_Hall]	4.16 ± 0.11	3.36 ± 0.13	4.61 ± 0.15
SPYFMFPIDDIKVEKERDPDDGKKTYEMRVEGPNGNPFRIEFNPKDGMIHIEFPPGMKLRPGDTFELTIRSA [r9_509_TrROS]	1.85 ± 0.21	2.09 ± 0.088	1.59 ± 0.2
SQTIRLELKNPDGRKIRIEIPVQRNPGNGYYYVSVKIEYYDPNGKPKERPITAPFNSPEDAEDQAREALRSA [r9_337_TrROS]	1.69 ± 0.28	1.63 ± 0.12	2.06 ± 0.16
SRIKITVKPKPDGNFYIKIWFPNNGKPFIFPIKNPDAMDEARDDPGQTIEVPEDYLRSLFPDNFTDVEIVSA [r9_390_TrROS]	1.25 ± 0.064	1.31 ± 0.015	1.16 ± 0.12
SSATVTFTVELPDDSVIVSVRIDAEEYDPGPPWVRVTIEVEIYDKNGELLATLRFEFLLPREVLEELRKSSA [r9_234_TrMRF]	5.77 ± 0.66	4.23 ± 0.14	5.74 ± 0.3
SSDIKIEIDIERNDDGYLTFTIEIRHPDPQQLVDAAKEIILELFPPGVNIDVEPHPDGWVKAPIMFPLPKSA [r9_646_TrROS]	1.35 ± 0.25	0.735 ± 0.13	1.63 ± 0.086
SSEKEVEVTIKIPLYYERPDGTIEEYDIEIKVKVKIDNGGFIAENLEEAIREVLEKLNIPEGHPDAPYFNKS [r1_175_TrMRF]	1.02 ± 0.33	1.72 ± 0.19	0.155 ± 0.48
SSITETKEFLLESEEEVEAIAEELKKPGVEVEVEVKEVERVDKKTGKKKKALKATITVKIPLPPPEKGKLSA [r9_962_JUSTAS]	0.794 ± 0.15	0.79 ± 0.054	0.742 ± 0.069
SSLGPGELEVTELETTEEELPDGTTLKRTLSREIVPDPAGAGRVVLTETLSTVPPDGSETVTTLSVTVLASA [r9_838_JUSTAS]	-0.138 ± 0.16	-0.078 ± 0.13	-0.0934 ± 0.17
